Source: the supplement of paper PMC5998384

Columns and labels:
HeLa Kyoto [1] = assay: solubility in G1/S (NP-40 vs SDS abundance) (log2 ratio); higher = more soluble; conditions: cell cycle stage: G1/S
HeLa Kyoto [2] = assay: solubility change mitosis vs G1/S (difference of NP-40 vs SDS log2 ratios) (log2 ratio difference); higher = more soluble in mitosis
HeLa Kyoto [3] = assay: melting temperature (median over replicates), in situ; higher = more thermally stable
HeLa Kyoto [4] = assay: thermal stability score vs G1/S (z-score of summed log2 fold changes over temperatures); higher = more thermally stable than in G1/S
[5] = cell cycle stage: early G1 (4.5 h after nocodazole release)
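Throughout, for melting temperature (median over replicates), in situ: HeLa Kyoto cells synchronized by double thymidine or nocodazole block, proteins quantified by TMT10plex mass spectrometry, three independent biological replicates.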
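Throughout, for solubility change mitosis vs G1/S (difference of NP-40 vs SDS log2 ratios): synchronized HeLa Kyoto cells (double thymidine block for G1/S, nocodazole release for mitosis), protein amounts in NP-40 versus SDS lysates quantified by mass spectrometry, three biological replicates.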
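Throughout, for solubility in G1/S (NP-40 vs SDS abundance): HeLa Kyoto cells arrested at G1/S by double thymidine block, proteins quantified by TMT10plex mass spectrometry in mild NP-40 versus SDS extracts, three biological replicates.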
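Throughout, for thermal stability score vs G1/S (z-score of summed log2 fold changes over temperatures): synchronized HeLa Kyoto cells, proteins quantified by TMT10plex mass spectrometry, three biological replicates, mitosis taken 0.5 h after nocodazole release, G1/S directly after double thymidine block.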

Sequence | solubility in G1/S (log2) (HeLa Kyoto [1]) | solubility change mitosis (log2) (HeLa Kyoto [2]) | melting temperature (HeLa Kyoto [3]; cell cycle stage: G1/S) [°C] | melting temperature (HeLa Kyoto [3]; cell cycle stage: mitosis) [°C] | thermal stability score (HeLa Kyoto [4]; [5]) | thermal stability score (HeLa Kyoto [4]; cell cycle stage: mitosis)
MEGSEPVAAHQGEEASCSSWGTGSTNKNLPIMSTASVEIDDALYSRQRYVLGDTAMQKMAKSHVFLSGMGGLGLEIAKNLVLAGIKAVTIHDTEKCQAWDLGTNFFLSEDDVVNKRNRAEAVLKHIAELNPYVHVTSSSVPFNETTDLSFLDKYQCVVLTEMKLPLQKKINDFCRSQCPPIKFISADVHGIWSRLFCDFGDEFEVLDTTGEEPKEIFISNITQANPGIVTCLENHPHKLETGQFLTFREINGMTGLNGSIQQITVISPFSFSIGDTTELEPYLHGGIAVQVKTPKTVFFESLERQLKHPKCLIVDFSNPEAPLEIHTAMLALDQFQEKYSRKPNVGCQQDSEELLKLATSISETLEEKPDVNADIVHWLSWTAQGFLSPLAAAVGGVASQEVLKAVTGKFSPLCQWLYLEAADIVESLGKPECEEFLPRGDRYDALRACIGDTLCQKLQNLNIFLVGCGAIGCEMLKNFALLGVGTSKEKGMITVTDPDLIEKSNLNRQFLFRPHHIQKPKSYTAADATLKINSQIKIDAHLNKVCPTTETIYNDEFYTKQDVIITALDNVEARRYVDSRCLANLRPLLDSGTMGTKGHTEVIVPHLTESYNSHRDPPEEEIPFCTLKSFPAAIEHTIQWARDKFESSFSHKPSLFNKFWQTYSSAEEVLQKIQSGHSLEGCFQVIKLLSRRPRNWSQCVELARLKFEKYFNHKALQLLHCFPLDIRLKDGSLFWQSPKRPPSPIKFDLNEPLHLSFLQNAAKLYATVYCIPFAEEDLSADALLNILSEVKIQEFKPSNKVVQTDETARKPDHVPISSEDERNAIFQLEKAILSNEATKSDLQMAVLSFEKDDDHNGHIDFITAASNLRAKMYSIEPADRFKTKRIAGKIIPAIATTTATVSGLVALEMIKVTGGYPFEAYKNCFLNLAIPIVVFTETTEVRKTKIRNGISFTIWDRWTVHGKEDFTLLDFINAVKEKYGIEPTMVVQGVKMLYVPVMPGHAKRLKLTMHKLVKPTTEKKYVDLTVSFAPDIDGDEDLPGPPVRYYFSHDTD [UBA6] | 0.00865 | -0.192 | 50.7 | 49.8 | -0.786 | -0.409
MEHIRTTKVEQVKLLDRFSTSNKSLTGTLYLTATHLLFIDSHQKETWILHHHIASVEKLALTTSGCPLVIQCKNFRTVHFIVPRERDCHDIYNSLLQLSKQAKYEDLYAFSYNPKQNDSERLQGWQLIDLAEEYKRMGVPNSHWQLSDANRDYKICETYPRELYVPRIASKPIIVGSSKFRSKGRFPVLSYYHQDKEAAICRCSQPLSGFSARCLEDEHLLQAISKANPVNRYMYVMDTRPKLNAMANRAAGKGYENEDNYSNIRFQFVGIENIHVMRSSLQKLLEVNGTKGLSVNDFYSGLESSGWLRHIKAVMDAAIFLAKAITVENASVLVHCSDGWDRTSQVCSLGSLLLDSYYRTIKGFMVLIEKDWISFGHKFSERCGQLDGDPKEVSPVFTQFLECVWHLTEQFPQAFEFSEAFLLQIHEHIHSCQFGNFLGNCQKEREELKLKEKTYSLWPFLLEDQKKYLNPLYSSESHRFTVLEPNTVSFNFKFWRNMYHQFDRTLHPRQSVFNIIMNMNEQNKQLEKDIKDLESKIKQRKNKQTDGILTKELLHSVHPESPNLKTSLCFKEQTLLPVNDALRTIEGSSPADNRYSEYAEEFSKSEPAVVSLEYGVARMTC [MTMR6] | -0.264 | 0.0297 | 51 | 50.5 | -0.167 | 0.0404
MEKNGNNRKLRVCVATCNRADYSKLAPIMFGIKTEPEFFELDVVVLGSHLIDDYGNTYRMIEQDDFDINTRLHTIVRGEDEAAMVESVGLALVKLPDVLNRLKPDIMIVHGDRFDALALATSAALMNIRILHIEGGEVSGTIDDSIRHAITKLAHYHVCCTRSAEQHLISMCEDHDRILLAGCPSYDKLLSAKNKDYMSIIRMWLGDDVKSKDYIVALQHPVTTDIKHSIKMFELTLDALISFNKRTLVLFPNIDAGSKEMVRVMRKKGIEHHPNFRAVKHVPFDQFIQLVAHAGCMIGNSSCGVREVGAFGTPVINLGTRQIGRETGENVLHVRDADTQDKILQALHLQFGKQYPCSKIYGDGNAVPRILKFLKSIDLQEPLQKKFCFPPVKENISQDIDHILETLSALAVDLGGTNLRVAIVSMKGEIVKKYTQFNPKTYEERINLILQMCVEAAAEAVKLNCRILGVGISTGGRVNPREGIVLHSTKLIQEWNSVDLRTPLSDTLHLPVWVDNDGNCAALAERKFGQGKGLENFVTLITGTGIGGGIIHQHELIHGSSFCAAELGHLVVSLDGPDCSCGSHGCIEAYASGMALQREAKKLHDEDLLLVEGMSVPKDEAVGALHLIQAAKLGNAKAQSILRTAGTALGLGVVNILHTMNPSLVILSGVLASHYIHIVKDVIRQQALSSVQDVDVVVSDLVDPALLGAASMVLDYTTRRIY [GNE] | -0.138 | -0.159 | 55.2 | 55.8 | 3.4 | 4.39
MEKSNETNGYLDSAQAGPAAGPGAPGTAAGRARRCAGFLRRQALVLLTVSGVLAGAGLGAALRGLSLSRTQVTYLAFPGEMLLRMLRMIILPLVVCSLVSGAASLDASCLGRLGGIAVAYFGLTTLSASALAVALAFIIKPGSGAQTLQSSDLGLEDSGPPPVPKETVDSFLDLARNLFPSNLVVAAFRTYATDYKVVTQNSSSGNVTHEKIPIGTEIEGMNILGLVLFALVLGVALKKLGSEGEDLIRFFNSLNEATMVLVSWIMWYVPVGIMFLVGSKIVEMKDIIVLVTSLGKYIFASILGHVIHGGIVLPLIYFVFTRKNPFRFLLGLLAPFATAFATCSSSATLPSMMKCIEENNGVDKRISRFILPIGATVNMDGAAIFQCVAAVFIAQLNNVELNAGQIFTILVTATASSVGAAGVPAGGVLTIAIILEAIGLPTHDLPLILAVDWIVDRTTTVVNVEGDALGAGILHHLNQKATKKGEQELAEVKVEAIPNCKSEEETSPLVTHQNPAGPVASAPELESKESVL [SLC1A4] | -0.527 | 0.0714 | 58.9 | 62.8 | -1.93 | -4.67
MEKSRMNLPKGPDTLCFDKDEFMKEDFDVDHFVSDCRKRVQLEELRDDLELYYKLLKTAMVELINKDYADFVNLSTNLVGMDKALNQLSVPLGQLREEVLSLRSSVSEGIRAVDERMSKQEDIRKKKMCVLRLIQVIRSVEKIEKILNSQSSKETSALEASSPLLTGQILERIATEFNQLQFHAVQSKGMPLLDKVRPRIAGITAMLQQSLEGLLLEGLQTSDVDIIRHCLRTYATIDKTRDAEALVGQVLVKPYIDEVIIEQFVESHPNGLQVMYNKLLEFVPHHCRLLREVTGGAISSEKGNTVPGYDFLVNSVWPQIVQGLEEKLPSLFNPGNPDAFHEKYTISMDFVRRLERQCGSQASVKRLRAHPAYHSFNKKWNLPVYFQIRFREIAGSLEAALTDVLEDAPAESPYCLLASHRTWSSLRRCWSDEMFLPLLVHRLWRLTLQILARYSVFVNELSLRPISNESPKEIKKPLVTGSKEPSITQGNTEDQGSGPSETKPVVSISRTQLVYVVADLDKLQEQLPELLEIIKPKLEMIGFKNFSSISAALEDSQSSFSACVPSLSSKIIQDLSDSCFGFLKSALEVPRLYRRTNKEVPTTASSYVDSALKPLFQLQSGHKDKLKQAIIQQWLEGTLSESTHKYYETVSDVLNSVKKMEESLKRLKQARKTTPANPVGPSGGMSDDDKIRLQLALDVEYLGEQIQKLGLQASDIKSFSALAELVAAAKDQATAEQP [COG2] | 0.0645 | -0.0298 | 50.2 | 49.4 | 0.195 | 0.834
MEKTELIQKAKLAEQAERYDDMATCMKAVTEQGAELSNEERNLLSVAYKNVVGGRRSAWRVISSIEQKTDTSDKKLQLIKDYREKVESELRSICTTVLELLDKYLIANATNPESKVFYLKMKGDYFRYLAEVACGDDRKQTIDNSQGAYQEAFDISKKEMQPTHPIRLGLALNFSVFYYEILNNPELACTLAKTAFDEAIAELDTLNEDSYKDSTLIMQLLRDNLTLWTSDSAGEECDAAEGAEN [YWHAQ] | 0.435 | 0.372 | 51.4 | 52 | 0.526 | 2.69
MEKTLETVPLERKKREKEQFRKLFIGGLSFETTEESLRNYYEQWGKLTDCVVMRDPASKRSRGFGFVTFSSMAEVDAAMAARPHSIDGRVVEPKRAVAREESGKPGAHVTVKKLFVGGIKEDTEEHHLRDYFEEYGKIDTIEIITDRQSGKKRGFGFVTFDDHDPVDKIVLQKYHTINGHNAEVRKALSRQEMQEVQSSRSGRGGNFGFGDSRGGGGNFGPGPGSNFRGGSDGYGSGRGFGDGYNGYGGGPGGGNFGGSPGYGGGRGGYGGGGPGYGNQGGGYGGGYDNYGGGNYGSGNYNDFGNYNQQPSNYGPMKSGNFGGSRNMGGPYGGGNYGPGGSGGSGGYGGRSRY [HNRNPA2B1] | -0.087 | 0.321 | 48.1 | 49 | 5.29 | 6.68
MEKTQETVQRILLEPYKYLLQLPGKQVRTKLSQAFNHWLKVPEDKLQIIIEVTEMLHNASLLIDDIEDNSKLRRGFPVAHSIYGIPSVINSANYVYFLGLEKVLTLDHPDAVKLFTRQLLELHQGQGLDIYWRDNYTCPTEEEYKAMVLQKTGGLFGLAVGLMQLFSDYKEDLKPLLNTLGLFFQIRDDYANLHSKEYSENKSFCEDLTEGKFSFPTIHAIWSRPESTQVQNILRQRTENIDIKKYCVHYLEDVGSFEYTRNTLKELEAKAYKQIDARGGNPELVALVKHLSKMFKEENE [GGPS1] | 0.163 | -0.0913 | 55.2 | 56 | -1.73 | -1.98
MELEDGVVYQEEPGGSGAVMSERVSGLAGSIYREFERLIGRYDEEVVKELMPLVVAVLENLDSVFAQDQEHQVELELLRDDNEQLITQYEREKALRKHAEEKFIEFEDSQEQEKKDLQTRVESLESQTRQLELKAKNYADQISRLEEREAELKKEYNALHQRHTEMIHNYMEHLERTKLHQLSGSDQLESTAHSRIRKERPISLGIFPLPAGDGLLTPDAQKGGETPGSEQWKFQELSQPRSHTSLKVSNSPEPQKAVEQEDELSDVSQGGSKATTPASTANSDVATIPTDTPLKEENEGFVKVTDAPNKSEISKHIEVQVAQETRNVSTGSAENEEKSEVQAIIESTPELDMDKDLSGYKGSSTPTKGIENKAFDRNTESLFEELSSAGSGLIGDVDEGADLLGMGREVENLILENTQLLETKNALNIVKNDLIAKVDELTCEKDVLQGELEAVKQAKLKLEEKNRELEEELRKARAEAEDARQKAKDDDDSDIPTAQRKRFTRVEMARVLMERNQYKERLMELQEAVRWTEMIRASRENPAMQEKKRSSIWQFFSRLFSSSSNTTKKPEPPVNLKYNAPTSHVTPSVKKRSSTLSQLPGDKSKAFDFLSEETEASLASRREQKREQYRQVKAHVQKEDGRVQAFGWSLPQKYKQVTNGQGENKMKNLPVPVYLRPLDEKDTSMKLWCAVGVNLSGGKTRDGGSVVGASVFYKDVAGLDTEGSKQRSASQSSLDKLDQELKEQQKELKNQEELSSLVWICTSTHSATKVLIIDAVQPGNILDSFTVCNSHVLCIASVPGARETDYPAGEDLSESGQVDKASLCGSMTSNSSAETDSLLGGITVVGCSAEGVTGAATSPSTNGASPVMDKPPEMEAENSEVDENVPTAEEATEATEGNAGSAEDTVDISQTGVYTEHVFTDPLGVQIPEDLSPVYQSSNDSDAYKDQISVLPNEQDLVREEAQKMSSLLPTMWLGAQNGCLYVHSSVAQWRKCLHSIKLKDSILSIVHVKGIVLVALADGTLAIFHRGVDGQWDLSNYHLLDLGRPHHSIRCMTVVHDKVWCGYRNKIYVVQPKAMKIEKSFDAHPRKESQVRQLAWVGDGVWVSIRLDSTLRLYHAHTYQHLQDVDIEPYVSKMLGTGKLGFSFVRITALMVSCNRLWVGTGNGVIISIPLTETNKTSGVPGNRPGSVIRVYGDENSDKVTPGTFIPYCSMAHAQLCFHGHRDAVKFFVAVPGQVISPQSSSSGTDLTGDKAGPSAQEPGSQTPLKSMLVISGGEGYIDFRMGDEGGESELLGEDLPLEPSVTKAERSHLIVWQVMYGNE [SPAG9] | 0.00549 | -0.168 | 51.3 | 50.6 | 0.672 | 0.413
